Test results reported in the RNAGym collection of RNA variant scans (doi:10.1073/pnas.2313332121).
Fewer inactive variants are shown than the library holds.

B1: TPR 5TU (parent)
chain: GGAUCUUCUCGAUCUAACAAAAAAGACAAAUCUGCCACAAAGCUUGAGAGCAUCUUCGGAUGCAGAGGCGGCAGCCUUCGGUGGCGCGAUAGCGCCAACGUUCUCAACUAUGACACGCAAAACGCGUGCUCCGUUGAAUGGAGUUUAUCAUG

Variants of: B1
Test: polymerase ribozyme fitness, log enrichment relative to wild type (log ratio); higher = more active; in vitro selection for triplet polymerase activity
In short: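 Frozen incubation at −7 °C formed the core of a single, triplicate in vitro selection round applied to PCR-built, transcribed mutant libraries of each subunit of a heterodimeric triplet polymerase ribozyme. Extended constructs were gel-excised, captured with streptavidin beads and amplified by RT-PCR, and input and output libraries were Illumina-sequenced with a filter of ≥10 input reads and ≥1 read per output. Fitness is the logarithm of genotype enrichment relative to wild-type enrichment, with inverse-variance-weighted replicate averaging, and the logarithm is base 2.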

Variant	polymerase ribozyme fitness (log ratio)
A23C A39G C63U U104C C108G U135C	≤ -4.2
C8G A22U C85U C103U	≤ -4.2
U31C C95A C96A U134C G143A U145G	-3.45
C5A G94U C95A C123A U135C	-3.89
A20C C87A	≤ -4.2
U13G C14U A16G G59A U90G	-4.01
G48U U56A G67A A73C G86U A107G	≤ -4.2
A26G U53A C85U A91G G133A U139A	≤ -4.2
C27U A39U U53A C93U	≤ -4.2
A29C U56A G80U A121G	≤ -4.2
G59C A60G C85A	-1.88
C51G G58U C93G C123U	≤ -4.2
G74A G84A A107G	≤ -4.2
C87U C116G G152U	-3.11
G88A C116U	-4.05
G34C A39G A49C A97U	≤ -4.2
C63U A122U	0.751
C38U A66G G92U C108A G136U	≤ -4.2
A52G G92C G117U A137G U144A	≤ -4.2
A37G C131U U134C	-1.56
C51G A60G	-1.74
U55A G100C G126U G128C	≤ -4.2
A39C U44C C93U C108G A121C U139G	≤ -4.2
C63U A64G G83C	≤ -4.2

Variant	polymerase ribozyme fitness (log ratio)
C18G C96U	-1.12
C87A C93G C108G	≤ -4.2
C27G C51U C54A U78A G94C	≤ -4.2
C76A C87U G92C	-2.48
A19U U33A G34A C79A C118U C125A C132U G133A A142C U148G	≤ -4.2
A17G A20U A37G U53G A98U A106U G126C G136C G143U	≤ -4.2
C54A U144A	-1.74
C18U A121U	-1.1
C14G G42U G46C G92C A119U G128A	≤ -4.2
U4G C57A A73G C87U	-0.214
A19U C99U G133C U144G	-2.25
C5A U7C G92C U139G	-1.27
C57U C96U	-0.201
A49C G124U	≤ -4.2
C57G C93A A113G A120C	-4.13
A41C C85U	-1.29
A41G U45A C54G G92U	-2.74
C8U C10A A23C G59U G88U	≤ -4.2
A17G C129G	-3.57
G84A	-0.547
C93A A107G	≤ -4.2
U82A A113C G117U G141C	≤ -4.2
A23C G25C C27G U53A C54G A66G G80A A91G G92A C99U	≤ -4.2
C75U G92C	-1.11

Variant	polymerase ribozyme fitness (log ratio)
A22G U31C G94C	0.086
A40C C69G C75U A98U U135G U151G	≤ -4.2
C51U G86C	-2.98
U9G A17G A41G U53A U77G G84U C116A G141A A147G	≤ -4.2
A39U C103G	-4.14
G58A A107U G126U C149G	≤ -4.2
A17C A23U A40C G86U	≤ -4.2
U44G G141A	-4.12
G59A U127A	-3.81
A19G G84U	-2.39
U55G A60G G133U G136C	≤ -4.2
A73U G83C C123G	-2.93
A19U G83A	-0.555
G11C G25U A52C C54U C95U A107G U144A	≤ -4.2
G80C G88C G92A G136U	≤ -4.2
G100U	-2.58
C93G U146G	-3.41
U55G A91U A106G G117U	-4.18
A3U C99U	-0.307
A41U A47U C93G	-4.14
A29U U45A G94C C105A A113U U130G U135G	≤ -4.2
C38U U61G C85A G94C C123A	-1.29
G84A A113U G140A	≤ -4.2
G50C C87U G100A	≤ -4.2

Variant	polymerase ribozyme fitness (log ratio)
C38U C57A G74U G83C	≤ -4.2
C10G A12G C27G A49G G62C G67A G68U C93U	≤ -4.2
U6A A29U G81A G92C C114U	≤ -4.2
U13G A91U	≤ -4.2
C93U U146G	-1.47
C8U C14G G50C A106U A110G	≤ -4.2
C51A G124A	-0.00389
U13G A37U U55A C57A C76U G86A U127C	≤ -4.2
C51A C72A G80U U146C	≤ -4.2
A52G A66C G84C C85A G126U	≤ -4.2
A41C G67C G83A C95G G143A	≤ -4.2
G58A U90A C125G	≤ -4.2
U53A U102G G126A	-3.76
C27U C51U G83A	-2.56
U15A C18G C27U U55A G86A C96G U104A A150G	≤ -4.2
A37C G83A	-0.102
C14G A17G G46C G81A C96G A120G	≤ -4.2
A16G G34U A52U A60G G88U A91U G140C	-4.14
A98G G133C	-1.69
G25C A52C U53A C87U G92C A98G U104G C108G U135G	≤ -4.2
A3C U6G A49C G65A G71A G88C C93A U135C	≤ -4.2
A3U C54A	-2.21
C38G	-0.296
U56A G80A U90A	≤ -4.2

Variant	polymerase ribozyme fitness (log ratio)
U45G C57A	0.374
U6A A20G U56A G88U U102A C103G C132A U146G	≤ -4.2
A52G G141U	1
C85U C87G G140C	≤ -4.2
G58A C72U C76G C99G A110C	≤ -4.2
A17U C96G A142U U146A	-2.11
A49C A64U C75U C76U U135G	≤ -4.2
A26U C75U U148G	≤ -4.2
G58C C87G	≤ -4.2
A41G A89G G92U G100A G117C G133A G143U	≤ -4.2
C93A A137U	≤ -4.2
G50A U56A G86A	-3.11
C10G C14U A28U U53A A122C	≤ -4.2
U4C C10A U15G G62C A64U G80A C93A C116A U127G C131U G141U U145A	≤ -4.2
A21C C51U A106G	-0.144
G67A C87U	-4.13
C43A A115U C118G	≤ -4.2
U4G C35G C95G U134A G136U	-4.16
A91U U104A G141A U148A	≤ -4.2
C32U A52C U55G C118U	≤ -4.2
U7C C27G C57G G88C G124A U134G	≤ -4.2
A52U U53A C57A G81U G83C C103G G126A	≤ -4.2
U61A C95A	-1.41
C35G G58A G59U A60U A73C C116G C123A G140C	≤ -4.2

Variant	polymerase ribozyme fitness (log ratio)
A40U G92U A98C C103G A120C U134A	-3.87
U15G U53A A60C G83A C85U	-3.78
A23G A52U C118A A122U	≤ -4.2
U102G G152U	≤ -4.2
C85A C87U	≤ -4.2
C10U A22G U44A G100U C103A	≤ -4.2
A47U G83C A142G	-2.42
U9A A28G A41C A64U G80U C87A C95U C131G	≤ -4.2
C27A A60U A91U A106U	≤ -4.2
C75U G136A	1.26
G50C U55G G67A C75A C87U U134G A137G	≤ -4.2
A21G G88A U90C U127C U135G C149U	≤ -4.2
G88U C105U	-3.83
C51U C69G G94C U146C	-1.9
U15G C38U U55A U56A C57G C85U A147C	-2.05
C76G C85G G92A A120C C129U	≤ -4.2
A41U G80A	-0.78
C10U A22U A29G U61A C95G	-4
C5U U56A C57A C85G	-0.724
A17C C18G A40U G86U	-1.43
U101G A115G	-0.695
C27G C35U G74U C118U U130A A137U	≤ -4.2
G50A C85A	-3.59
A64C G71A U144G U148G	≤ -4.2

Variant	polymerase ribozyme fitness (log ratio)
C57A U146A	-0.0166
C51A A52C C75A G83U G88C A91G C123G G126U A147U U151G	≤ -4.2
C76A U145G	-0.329
A28U G67C U77A U90C C95U C105U A142G	≤ -4.2
G68A C87G U104G	≤ -4.2
G11A U82A	-1.4
U6C C57U G83U G84U A121U	-3.18
U9G U33A G50A	-4.2
C35U G58A C95U	-0.16
A21U C51U G126U	0.375
U82G C87U	-0.516
A12G A91U C105G A106U	-4.11
C54U A73G G83U C95G G100U U135A	≤ -4.2
U9C C14U C57G C93G G140U	≤ -4.2
A29G C43A G48C C93G G126C	≤ -4.2
C8G C35U G46C C72U G74U C96U A107G	≤ -4.2
C57A C95A C96U G141A	-4.07
G59C G65C C76G U145G C149A	≤ -4.2
A17G U134G	-1.76
A26C U78A G84A G126C C149G	≤ -4.2
A19G U78G C87G A98U U101G G126A	≤ -4.2
C99U G141A	-0.231
A17G U53A C99G U130C	≤ -4.2
